B1: Ubiquitin carboxyl-terminal hydrolase CYLD (Homo sapiens), Q9NQC7 (parent)
chain: MSSGLWSQEKVTSPYWEERIFYLLLQECSVTDKQTQKLLKVPKGSIGQYIQDRSVGHSRIPSAKGKKNQIGLKILEQPHAVLFVDEKDVVEINEKFTELLLAITNCEERFSLFKNRNRLSKGLQIDVGCPVKVQLRSGEEKFPGVVRFRGPLLAERTVSGIFFGVELLEEGRGQGFTDGVYQGKQLFQCDEDCGVFVALDKLELIEDDDTALESDYAGPGDTMQVELPPLEINSRVSLKVGETIESGTVIFCDVLPGKESLGYFVGVDMDNPIGNWDGRFDGVQLCSFACVESTILLHINDIIPALSESVTQERRPPKLAFMSRGVGDKGSSSHNKPKATGSTSDPGNRNRSELFYTLNGSSVDSQPQSKSKNTWYIDEVAEDPAKSLTEISTDFDRSSPPLQPPPVNSLTTENRFHSLPFSLTKMPNTNGSIGHSPLSLSAQSVMEELNTAPVQESPPLAMPPGNSHGLEVGSLAEVKENPPFYGVIRWIGQPPGLNEVLAGLELEDECAGCTDGTFRGTRYFTCALKKALFVKLKSCRPDSRFASLQPVSNQIERCNSLAFGGYLSEVVEENTPPKMEKEGLEIMIGKKKGIQGHYNSCYLDSTLFCLFAFSSVLDTVLLRPKEKNDVEYYSETQELLRTEIVNPLRIYGYVCATKIMKLRKILEKVEAASGFTSEEKDPEEFLNILFHHILRVEPLLKIRSAGQKVQDCYFYQIFMEKNEKVGVPTIQQLLEWSFINSNLKFAEAPSCLIIQMPRFGKDFKLFKKIFPSLELNITDLLEDTPRQCRICGGLAMYECRECYDDPDISAGKIKQFCKTCNTQVHLHPKRLNHKYNPVSLPKDLPDWDWRHGCIPCQNMELFAVLCIETSHYVAFVKYGKDDSAWLFFDSMADRDGGQNGFNIPQVTPCPEVGEYLKMSLEDLHSLDSRRIQGCARRLLCDAYMCMYQSPTMSLYK

Variants of: B1
Conditions: with itch_human ITCH

| Variant | effect of a mutation on the interaction |
| --- | --- |
| Y485A | disrupting interaction |
